The record followed here is US20120108796A1 (Bayer, published 2012).

Sequences and labels used below:
B1: 4B7 wild-type Fab (Fab, V domains shown)
VH: QVQLQQSGPGLVKPSQTLSLTCAISGDSVSSNSAAWSWIRQSPGRGLEWLGIIYKRSKWYNDYAVSVKSRITINPDTSKNQFSLQLNSVTPEDTAVYYCARWHSDKHWGFDYWGQGTLVTVSS
VL: DIVMTQSPLSLPVTPGEPASISCRSSQSLVFSDGNTYLNWYLQKPGQSPQLLIYKGSNRASGVPDRFSGSGSGTDFTLKISRVEAEDVGVYYCQQYDSYPLTFGQGTKVEIKR
B2: 4B7 HC D62R (Fab, V domains shown)
VH: QVQLQQSGPGLVKPSQTLSLTCAISGDSVSSNSAAWSWIRQSPGRGLEWLGIIYKRSKWYNRYAVSVKSRITINPDTSKNQFSLQLNSVTPEDTAVYYCARWHSDKHWGFDYWGQGTLVTVSS
VL: DIVMTQSPLSLPVTPGEPASISCRSSQSLVFSDGNTYLNWYLQKPGQSPQLLIYKGSNRASGVPDRFSGSGSGTDFTLKISRVEAEDVGVYYCQQYDSYPLTFGQGTKVEIKR
B3: 2A8 wild-type Fab (Fab, V domains shown)
VH: QVQLVESGGGLVQPGGSLRLSCAASGFTFRSYGMSWVRQAPGKGLEWVSSIRGSSSSTYYADSVKGRFTISRDNSKNTLYLQMNSLRAEDTAVYYCARKYRYWFDYWGQGTLVTVSS
VL: DIELTQPPSVSVAPGQTARISCSGDNLRNYYAHWYQQKPGQAPVVVIYYDNNRPSGIPERFSGSNSGNTATLTISGTQAEDEADYYCQSWDDGVPVFGGGTKLTVLG
B4: 2A8 HC K99V (Fab, V domains shown)
VH: QVQLVESGGGLVQPGGSLRLSCAASGFTFRSYGMSWVRQAPGKGLEWVSSIRGSSSSTYYADSVKGRFTISRDNSKNTLYLQMNSLRAEDTAVYYCARVYRYWFDYWGQGTLVTVSS
VL: DIELTQPPSVSVAPGQTARISCSGDNLRNYYAHWYQQKPGQAPVVVIYYDNNRPSGIPERFSGSNSGNTATLTISGTQAEDEADYYCQSWDDGVPVFGGGTKLTVLG
B5: 2A8 HC S35D (Fab, V domains shown)
VH: QVQLVESGGGLVQPGGSLRLSCAASGFTFRSYGMDWVRQAPGKGLEWVSSIRGSSSSTYYADSVKGRFTISRDNSKNTLYLQMNSLRAEDTAVYYCARKYRYWFDYWGQGTLVTVSS
VL: DIELTQPPSVSVAPGQTARISCSGDNLRNYYAHWYQQKPGQAPVVVIYYDNNRPSGIPERFSGSNSGNTATLTISGTQAEDEADYYCQSWDDGVPVFGGGTKLTVLG
B6: 2A8 HC S31P (Fab, V domains shown)
VH: QVQLVESGGGLVQPGGSLRLSCAASGFTFRPYGMSWVRQAPGKGLEWVSSIRGSSSSTYYADSVKGRFTISRDNSKNTLYLQMNSLRAEDTAVYYCARKYRYWFDYWGQGTLVTVSS
VL: DIELTQPPSVSVAPGQTARISCSGDNLRNYYAHWYQQKPGQAPVVVIYYDNNRPSGIPERFSGSNSGNTATLTISGTQAEDEADYYCQSWDDGVPVFGGGTKLTVLG
B7: 2A8 HC I51E (Fab, V domains shown)
VH: QVQLVESGGGLVQPGGSLRLSCAASGFTFRSYGMSWVRQAPGKGLEWVSSERGSSSSTYYADSVKGRFTISRDNSKNTLYLQMNSLRAEDTAVYYCARKYRYWFDYWGQGTLVTVSS
VL: DIELTQPPSVSVAPGQTARISCSGDNLRNYYAHWYQQKPGQAPVVVIYYDNNRPSGIPERFSGSNSGNTATLTISGTQAEDEADYYCQSWDDGVPVFGGGTKLTVLG
B8: 2A8 LC D91W (Fab, V domains shown)
VH: QVQLVESGGGLVQPGGSLRLSCAASGFTFRSYGMSWVRQAPGKGLEWVSSIRGSSSSTYYADSVKGRFTISRDNSKNTLYLQMNSLRAEDTAVYYCARKYRYWFDYWGQGTLVTVSS
VL: DIELTQPPSVSVAPGQTARISCSGDNLRNYYAHWYQQKPGQAPVVVIYYDNNRPSGIPERFSGSNSGNTATLTISGTQAEDEADYYCQSWWDGVPVFGGGTKLTVLG
B9: 2A8 HC S54F (Fab, V domains shown)
VH: QVQLVESGGGLVQPGGSLRLSCAASGFTFRSYGMSWVRQAPGKGLEWVSSIRGFSSSTYYADSVKGRFTISRDNSKNTLYLQMNSLRAEDTAVYYCARKYRYWFDYWGQGTLVTVSS
VL: DIELTQPPSVSVAPGQTARISCSGDNLRNYYAHWYQQKPGQAPVVVIYYDNNRPSGIPERFSGSNSGNTATLTISGTQAEDEADYYCQSWDDGVPVFGGGTKLTVLG
B10: 2A8 LC Y48F (Fab, V domains shown)
VH: QVQLVESGGGLVQPGGSLRLSCAASGFTFRSYGMSWVRQAPGKGLEWVSSIRGSSSSTYYADSVKGRFTISRDNSKNTLYLQMNSLRAEDTAVYYCARKYRYWFDYWGQGTLVTVSS
VL: DIELTQPPSVSVAPGQTARISCSGDNLRNYYAHWYQQKPGQAPVVVIFYDNNRPSGIPERFSGSNSGNTATLTISGTQAEDEADYYCQSWDDGVPVFGGGTKLTVLG
B11: 2A8 HC S31V (Fab, V domains shown)
VH: QVQLVESGGGLVQPGGSLRLSCAASGFTFRVYGMSWVRQAPGKGLEWVSSIRGSSSSTYYADSVKGRFTISRDNSKNTLYLQMNSLRAEDTAVYYCARKYRYWFDYWGQGTLVTVSS
VL: DIELTQPPSVSVAPGQTARISCSGDNLRNYYAHWYQQKPGQAPVVVIYYDNNRPSGIPERFSGSNSGNTATLTISGTQAEDEADYYCQSWDDGVPVFGGGTKLTVLG
B12: 2A8 LC D91L (Fab, V domains shown)
VH: QVQLVESGGGLVQPGGSLRLSCAASGFTFRSYGMSWVRQAPGKGLEWVSSIRGSSSSTYYADSVKGRFTISRDNSKNTLYLQMNSLRAEDTAVYYCARKYRYWFDYWGQGTLVTVSS
VL: DIELTQPPSVSVAPGQTARISCSGDNLRNYYAHWYQQKPGQAPVVVIYYDNNRPSGIPERFSGSNSGNTATLTISGTQAEDEADYYCQSWLDGVPVFGGGTKLTVLG
B13: 2A8 HC K99L (Fab, V domains shown)
VH: QVQLVESGGGLVQPGGSLRLSCAASGFTFRSYGMSWVRQAPGKGLEWVSSIRGSSSSTYYADSVKGRFTISRDNSKNTLYLQMNSLRAEDTAVYYCARLYRYWFDYWGQGTLVTVSS
VL: DIELTQPPSVSVAPGQTARISCSGDNLRNYYAHWYQQKPGQAPVVVIYYDNNRPSGIPERFSGSNSGNTATLTISGTQAEDEADYYCQSWDDGVPVFGGGTKLTVLG
B14: 2A8 LC D91K (Fab, V domains shown)
VH: QVQLVESGGGLVQPGGSLRLSCAASGFTFRSYGMSWVRQAPGKGLEWVSSIRGSSSSTYYADSVKGRFTISRDNSKNTLYLQMNSLRAEDTAVYYCARKYRYWFDYWGQGTLVTVSS
VL: DIELTQPPSVSVAPGQTARISCSGDNLRNYYAHWYQQKPGQAPVVVIYYDNNRPSGIPERFSGSNSGNTATLTISGTQAEDEADYYCQSWKDGVPVFGGGTKLTVLG
B15: 2A8-216 (Fab, V domains shown)
VH: QVQLVESGGGLVQPGGSLRLSCAASGFTFRVYGMSWVRQAPGKGLEWVSSDRGSRSSTYYADSVKGRFTISRDNSKNTLYLQMNSLRAEDTAVYYCARVYRYWFDYWGQGTLVTVSS
VL: DIELTQPPSVSVAPGQTARISCSGDNLRNYYAHWYQQKPGQAPVVVIFYDNNRPSGIPERFSGSNSGNTATLTISGTQAEDEADYYCQSWLDGVPWFGGGTKLTVLG
B16: 2A8-143 (Fab, V domains shown)
VH: QVQLVESGGGLVQPGGSLRLSCAASGFTFRSYGMDWVRQAPGKGLEWVSSIRGSRSSTYYADSVKGRFTISRDNSKNTLYLQMNSLRAEDTAVYYCARLYRYWFDYWGQGTLVTVSS
VL: DIELTQPPSVSVAPGQTARISCSGDNLRNYYAHWYQQKPGQAPVVVIFYDVNRPSGIPERFSGSNSGNTATLTISGTQAEDEADYYCQSWLDGVPWFGGGTKLTVLG
B17: 2A8-127 (Fab, V domains shown)
VH: QVQLVESGGGLVQPGGSLRLSCAASGFTFRSYGMDWVRQAPGKGLEWVSSIRGSSSSTYYADSVKGRFTISRDNSKNTLYLQMNSLRAEDTAVYYCARLYRYWFDYWGQGTLVTVSS
VL: DIELTQPPSVSVAPGQTARISCSGDNLRNYYAHWYQQKPGQAPVVVIFYDVNRPSDIPERFSGSNSGNTATLTISGTQAEDEADYYCQSWDDGVPWFGGGTKLTVLG
B18: 2A8-200 (Fab, V domains shown)
VH: QVQLVESGGGLVQPGGSLRLSCAASGFTFRSYGMDWVRQAPGKGLEWVSSIRGSRSSTYYADSVKGRFTISRDNSKNTLYLQMNSLRAEDTAVYYCARLYRYWFDYWGQGTLVTVSS
VL: DIELTQPPSVSVAPGQTARISCSGDNLRNYYAHWYQQKPGQAPVVVIFYDVNRPSGIPERFSGSNSGNTATLTISGTQAEDEADYYCQSWWDGVPVFGGGTKLTVLG

The first assay deals with T1, recombinant TFPI of the FXa restoring assay (human, mouse or rat; species not stated for Tables 9 and 10). Kind of assay: cell-based or functional assay.
With B1, the “IC 50, FXa restoring assay” value was found to be 1.46 µg/mL and the “Improvement of IC50 vs 4B7wt” value came out at 1 fold.

B2: the “IC 50, FXa restoring assay” value was determined as 0.058 µg/mL and the “Improvement of IC50 vs 4B7wt” value amounted to 25 fold.

With B3, the “IC 50, FXa restoring assay” value was 0.7 µg/mL and the “Improvement of IC50 vs 2A8wt” value worked out at 1 fold.

B4: the “IC 50, FXa restoring assay” value turned out to be 0.39 µg/mL and the “Improvement of IC50 vs 2A8wt” value is 1.6 fold.

On to B5, for which the “IC 50, FXa restoring assay” value amounted to 0.55 µg/mL and the “Improvement of IC50 vs 2A8wt” value is 1.1 fold.

In the case of B6, the “IC 50, FXa restoring assay” value came to 0.33 µg/mL and the “Improvement of IC50 vs 2A8wt” value turned out to be 1.7 fold.

With B7, the “IC 50, FXa restoring assay” value worked out at 0.76 µg/mL and the “Improvement of IC50 vs 2A8wt” value was 0.9 fold.

B8: the “IC 50, FXa restoring assay” value came to 0.23 µg/mL and the “Improvement of IC50 vs 2A8wt” value stood at 3 fold.

For the molecule B9, the “IC 50, FXa restoring assay” value worked out at 0.35 µg/mL and the “Improvement of IC50 vs 2A8wt” value amounted to 2 fold.

In the case of B10, the “IC 50, FXa restoring assay” value was found to be 0.34 µg/mL and the “Improvement of IC50 vs 2A8wt” value was 1.9 fold.

On to B11, for which the “IC 50, FXa restoring assay” value stood at 0.201 µg/mL and the “Improvement of IC50 vs 2A8wt” value is 3.5 fold.

As to B12, the “IC 50, FXa restoring assay” value was determined as 0.37 µg/mL and the “Improvement of IC50 vs 2A8wt” value was 1.7 fold.

Regarding B13, the “IC 50, FXa restoring assay” value worked out at 0.181 µg/mL and the “Improvement of IC50 vs 2A8wt” value turned out to be 3.9 fold.

Take B14: the “IC 50, FXa restoring assay” value is 0.34 µg/mL and the “Improvement of IC50 vs 2A8wt” value came to 1.9 fold.

For another assay, the target named is T1, recombinant TFPI of the FXa restoring …. Kind of assay: cell-based or functional assay. This is another data set of the same source.
Turning to B3, the “EC50, FXa restoring assay” value came to 7.91 nM and the “Improvement of EC50 vs 2A8 wt” value was 1 fold.

Consider B15, for which the “EC50, FXa restoring assay” value was found to be 1.08 nM and the “Improvement of EC50 vs 2A8 wt” value stood at 7.3 fold.

In the case of B16, the “EC50, FXa restoring assay” value is 0.5 nM and the “Improvement of EC50 vs 2A8 wt” value was 15.8 fold.

B17: the “EC50, FXa restoring assay” value is 0.44 nM and the “Improvement of EC50 vs 2A8 wt” value came out at 18.2 fold.

For the molecule B18, the “EC50, FXa restoring assay” value worked out at 0.81 nM and the “Improvement of EC50 vs 2A8 wt” value was determined as 9.7 fold.

Turning to B13, the “EC50, FXa restoring assay” value turned out to be 1 nM and the “Improvement of EC50 vs 2A8 wt” value worked out at 7.9 fold.
